Changes are numbered by the printed parent chain. Names and notes keep the numbering of the source.
B1: anti-human OX40 IgG2 antibody Mut_2 (H268D/S298L/L328W) (antibody, name in EU numbering)
heavy: QVQLQESGPGLVKPSGTLSLTCAVSGGSISSSIWWSWVRQPPGKGLEWIGEIHHSGNTNCNPSLKSRVTISIDKSKNQFSLKLTSVTAADTAVYYCARAGTGTTLDYWGQGTLVTVSSASTKGPSVFPLAPCSRSTSESTAALGCLVKDYFPEPVTVSWNSGALTSGVHTFPAVLQSSGLYSLSSVVTVPSSNFGTQTYTCNVDHKPSNTKVDKTVERKCCVECPPCPAPPVAGPSVFLFPPKPKDTLMISRTPEVTCVVVDVSDEDPEVQFNWYVDGVEVHNAKTKPREEQFNLTFRVVSVLTVVHQDWLNGKEYKCKVSNKGWPAPIEKTISKTKGQPREPQVYTLPPSREEMTKNQVSLTCLVKGFYPSDIAVEWESNGQPENNYKTTPPMLDSDGSFFLYSKLTVDKSRWQQGNVFSCSVMHEALHNHYTQKSLSLSPGK
light: EIVLTQSPGTLSLSPGERATLSCRASQSVSGDYLAWYQQKLGQAPRLLIYGASIRATGIPDRFSGSGSGTDFTLTISKLEPEDFAVYYCQQYGSSPLTFGGGTKVEIKRTVAAPSVFIFPPSDEQLKSGTASVVCLLNNFYPREAKVQWKVDNALQSGNSQESVTEQDSKDSTYSLSSTLTLSKADYEKHKVYACEVTHQGLSSPVTKSFNRGEC
notes: Substitutions in Eu numbering; entries include an unstated signal peptide
B2: anti-human OX40 IgG2 antibody Mut_5 (A235W/V266L/S298L/L328W) (antibody)
heavy: B1 heavy with A233W, V263L, D265H
light: B1 light
notes: as for B1
B3: anti-human OX40 IgG2 antibody Mut_7 (S239V/V266L/S298L/L328W) (antibody, name in EU numbering)
heavy: B1 heavy with S236V, V263L, D265H
light: B1 light
notes: as for B1
B4: anti-human OX40 IgG2 antibody Mut_3 (S267V/S298L/L328W) (antibody, name in EU numbering)
heavy: B1 heavy with S264V, D265H
light: B1 light
notes: as for B1
B5: anti-human OX40 IgG2 antibody Mut_9 (V266L/S267D/H268D/E269D/P271Q) (antibody, name in EU numbering)
heavy: B1 heavy with V263L, S264D, E266D, P268Q, L295S, W325L
light: B1 light
notes: as for B1
B6: anti-human OX40 IgG2 antibody Mut_6 (V234Q/A235G/P238L/S239V/H268D/G327A/L328E/A330S/I332T) (antibody)
heavy: B1 heavy with V232Q, A233G, P235L, S236V, L295S, G324A, W325E, A327S, I329T
light: B1 light
notes: entries include an unstated signal peptide
B7: anti-human OX40 IgG2 antibody Mut_11 (S267E/A330S) (antibody, name in EU numbering)
heavy: B1 heavy with S264E, D265H, L295S, W325L, A327S
light: B1 light
notes: as for B1
B8: anti-human OX40 IgG2 antibody Mut_10 (S267E/H268S/E269D) (antibody, name in EU numbering)
heavy: B1 heavy with S264E, D265S, E266D, L295S, W325L
light: B1 light
notes: as for B1
B9: anti-human OX40 IgG2 antibody Mut_4 (V234M/S267E/S298L/L328W) (antibody)
heavy: B1 heavy with V232M, S264E, D265H
light: B1 light
notes: as for B1

Tests used:
[1] = biological target: T1, FcγRIIB (human, UniProt P31994 43-217, biotin-labeled); experiment: ELISA, coated antibody, biotin-FcγR;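 for Absorbance value: antibody coated at 2 µg/mL at 100 µL per well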
T1 construct: extracellular domain; Bought protein; also called CD32b
T1 sequence (looked up): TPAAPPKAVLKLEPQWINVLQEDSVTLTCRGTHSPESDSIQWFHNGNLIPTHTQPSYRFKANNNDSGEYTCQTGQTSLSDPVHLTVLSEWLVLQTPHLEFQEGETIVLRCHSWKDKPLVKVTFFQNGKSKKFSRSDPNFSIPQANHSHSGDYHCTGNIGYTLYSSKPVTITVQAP
Procedure: (§1) One hundred μl (2 μg/mL) of antibody or mutant thereof were added to the enzyme-linked plate to be coated overnight, then the supernatant was discarded. The plate was blocked with PBS containing 1% BSA for 2 hours, and washed with PBST (PBS containing 0.05% Tween 20). Biotin-labeled FcγR extracellular domain protein (Beijing Sino Biological Co., Ltd) of appropriate concentration was added and incubated at room temperature for 1 hour, then the supernatant was discarded and the plate was washed with PBST. The Biotin-labeled protein was detected by incubating with Streptavidin-HRP (BD BioSciences) at room temperature for 1 hour. The supernatant was removed, and the color-developing solution was added for color development for 20-40 minutes to determine the absorbance of 650 nm (A650).
(§2) Anti-human OX40 antibodies containing these new Fc mutation combinations are expressed and the binding property of the mutant antibody to FcγR are analyzed by Enzyme-linked immunosorbent assay (ELISA).

[2] = biological target: T2, FcγRIIIA^158V (human, UniProt P08637 17-208, biotin-labeled); experiment: ELISA, coated antibody, biotin-FcγR;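 for Absorbance value: antibody coated at 2 µg/mL at 100 µL per well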
T2 construct: extracellular domain; Bought protein; also called RIIIAV; CD16a 158V
Procedure: as §1, §2

[3] = biological target: T3, FcγRIIA^131R (human, UniProt P12318 34-217, biotin-labeled); experiment: ELISA, coated antibody, biotin-FcγR;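 for Absorbance value: antibody coated at 2 µg/mL at 100 µL per well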
T3 construct: extracellular domain; Bought protein; also called RIIAR
T3 sequence (looked up): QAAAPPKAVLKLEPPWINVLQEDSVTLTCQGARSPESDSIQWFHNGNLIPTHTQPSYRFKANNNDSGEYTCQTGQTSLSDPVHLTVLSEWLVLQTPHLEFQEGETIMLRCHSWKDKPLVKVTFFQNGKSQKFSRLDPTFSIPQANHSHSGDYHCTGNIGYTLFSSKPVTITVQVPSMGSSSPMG
Procedure: as §1, §2

[4] = biological target: T4, FcγRIIA^131H (human, UniProt P12318 34-217, biotin-labeled); experiment: ELISA, coated antibody, biotin-FcγR;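 for Absorbance value: antibody coated at 2 µg/mL at 100 µL per well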
T4 construct: extracellular domain; Bought protein; also called RIIAH
T4 sequence (looked up): T3 sequence (looked up) with R134H
Procedure: as §1, §2

[5] = biological target: T5, FcγRIIIA^158F (human, UniProt P08637 17-208, biotin-labeled); experiment: ELISA, coated antibody, biotin-FcγR;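 for Absorbance value: antibody coated at 2 µg/mL at 100 µL per well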
T5 construct: extracellular domain; Bought protein; also called RIIIAF
Procedure: as §1, §2

[6] = biological target: T6, FcγRI (human, UniProt P12314 16-292, biotin-labeled); experiment: ELISA, coated antibody, biotin-FcγR;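 for Absorbance value: antibody coated at 2 µg/mL at 100 µL per well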
T6 construct: extracellular domain; Bought protein; also called CD64
Procedure: as §1, §2

[7] = biological target: T1, FcγRIIB; experiment: ELISA; relative affinity to FcγRIIB over that to FcγRIIA131R
Procedure: as §1, §2

T2 sequence (P08637 17-208 F176V): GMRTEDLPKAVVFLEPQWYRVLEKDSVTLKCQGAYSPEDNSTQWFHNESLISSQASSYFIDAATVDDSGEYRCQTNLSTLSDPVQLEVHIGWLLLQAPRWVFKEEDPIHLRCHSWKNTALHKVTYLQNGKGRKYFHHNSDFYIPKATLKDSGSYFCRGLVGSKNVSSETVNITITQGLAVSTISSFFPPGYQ
T6 sequence (P12314 16-292): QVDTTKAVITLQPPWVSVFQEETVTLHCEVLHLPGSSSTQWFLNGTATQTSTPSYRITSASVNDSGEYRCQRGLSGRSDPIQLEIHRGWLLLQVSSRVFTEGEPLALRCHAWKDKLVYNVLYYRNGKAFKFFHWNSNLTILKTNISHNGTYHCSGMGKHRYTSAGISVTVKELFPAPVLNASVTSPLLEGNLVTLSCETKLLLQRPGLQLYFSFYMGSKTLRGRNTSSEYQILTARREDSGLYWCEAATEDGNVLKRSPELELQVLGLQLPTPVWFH
T5 sequence (P08637 17-208): as the sequence (P08637 17-208 F176V) above, with V160F counted along it

Binder	Absorbance value [1]	Increased factor of RIIB binding compared with wild-type IgG2 [1]	Relative binding affinity RIIB/G1 [1]	Absorbance value [2]	Relative binding affinity RIIIAV/G1 [2]	Absorbance value [3]	Relative binding affinity RIIAR/G1 [3]	Absorbance value [4]	Relative binding affinity RIIAH/G1 [4]	Absorbance value [5]	Relative binding affinity RIIIAF/G1 [5]	Absorbance value [6]	Relative binding affinity RI/G1 [6]	RIIB/RIIAR [7]
B1	1 A650	13.4 fold	1.33 ratio	0.06 A650	0.06 ratio	0.29 A650	1.09 ratio	0.32 A650	0.56 ratio	0.07 A650	0.38 ratio	0.14 A650	0.05 ratio	1.21 ratio
B2	1.18 A650	15.7 fold	1.56 ratio	0.06 A650	0.07 ratio	0.46 A650	1.77 ratio	0.46 A650	0.81 ratio	0.06 A650	0.31 ratio	0.38 A650	0.14 ratio	0.88 ratio
B3	0.58 A650	7.7 fold	0.76 ratio	0.06 A650	0.07 ratio	0.23 A650	0.87 ratio	0.38 A650	0.67 ratio	0.07 A650	0.38 ratio	0.13 A650	0.05 ratio	0.88 ratio
B4	0.94 A650	12.6 fold	1.25 ratio	0.07 A650	0.08 ratio	0.23 A650	0.87 ratio	0.34 A650	0.6 ratio	0.08 A650	0.4 ratio	0.18 A650	0.07 ratio	1.44 ratio
B5	1.2 A650	16 fold	1.59 ratio	0.07 A650	0.08 ratio	0.74 A650	2.83 ratio	0.2 A650	0.34 ratio	0.07 A650	0.38 ratio	0.12 A650	0.05 ratio	0.56 ratio
B6	0.5 A650	6.63 fold	0.66 ratio	0.06 A650	0.06 ratio	0.05 A650	0.19 ratio	0.05 A650	0.08 ratio	0.06 A650	0.3 ratio	0.09 A650	0.03 ratio	3.52 ratio
B7	1.01 A650	13.4 fold	1.33 ratio	0.08 A650	0.08 ratio	0.36 A650	1.36 ratio	0.55 A650	0.96 ratio	0.08 A650	0.41 ratio	0.13 A650	0.05 ratio	0.98 ratio
B8	1.05 A650	14.1 fold	1.4 ratio	0.09 A650	0.09 ratio	0.43 A650	1.64 ratio	0.58 A650	1.02 ratio	0.09 A650	0.48 ratio	0.18 A650	0.07 ratio	0.85 ratio
B9	1.92 A650	25.6 fold	2.54 ratio	0.05 A650	0.06 ratio	1.44 A650	5.51 ratio	0.48 A650	0.84 ratio	0.06 A650	0.32 ratio	0.25 A650	0.1 ratio	0.46 ratio

From patent US20230220042A1 (SHANGHAI JIAO TONG UNIVERSITY SCHOOL OF MEDICINE, published 2023)
